According to patent CN116789813A:

Molecular target: 突变型金黄色葡萄球菌α-溶血素(mHla), Hla(H35L) (Staphylococcus aureus (strain MRSA 252))
Assay: ELISA, mHla coated at 2μg/mL, anti-human IgG Fab-HRP detection

B1: 全人源Hla单克隆抗体Hla-38 (antibody, V domains shown)
VH: QVQLLESGGGVVQPGRSLRLSCIVSGFDLNSFAMHWVRQPPGKGLEWVAVIWHDGSERFYAASVKGRFTISRDTSRNTLFLQMNSLRVEDTAVYYCAKSGDYYENSGYFGSWGQGALVTVSS
VL: ELVLTQSPATLSVSPGERATLSCRASQSVGNDLAWYQQKPGQAPRLLIYGASTRATGIPARFSGSGFGTEFTLTISSLQSEDFAVYYCQQYNNWWTFGQGTKVDIK
B1 was tested, and the EC50 was 0.849 µg/mL.
